“Also recorded” adds a separate entry of the source.
Legend:
oral ulcers = conditions: hamsters; cited from earlier work
Streptococcus mutans = conditions: lactoferrin and iron depletion; cited from earlier work
P. aeruginosa = conditions: in vitro; cited from earlier work
chronic wound biofilm = assay: Topical treatment of patients' chronic/non-healing wounds in the clinic (case reports and clinical experience); assay type: in vivo, human; conditions: for wound healing outcome: topical application with debridement and other wound care
Source text: The composition is preferably applied following wound debridement. Although biofilm bacteria cannot be completely eradicated from the wound area by debridement, decreasing biofilm mass and providing increased exposure of the debrided tissue and remaining biofilm bacteria to the inventive compositions increases wound healing. […] It is therefore of benefit to debride the slough from the wound as completely as possible. Debridement can be performed by surgical, mechanical, autolytic, enzymatic, or a combination of means known to those of skill in the art of wound care. Furthermore, standard gauze dressings to pack or cover the wound will preferably be avoided, since those dressings may enhance biofilm formation or reconstitution in the wound. If used, such dressings may, however, be coated or impregnated with a composition of the present invention to decrease the biofilm-enhancing properties of a gauze dressing.
Topical wound care compositions may comprise about 2 to about 200 mg of MDPP or MDPP-A per cubic centimeter of total composition. In one embodiment, a composition comprises about 20 to about 200 mg of MDPP or MDPP-A, provided as Bioferrino®1000 or Bioferrin®2000, per cubic centimeter of total composition and about 1 to about 50, or in some embodiments about 5 to about 20, percent (w/v) xylitol. In one embodiment, this composition may be admixed into a methylcellulose/gelatin gel. This composition can be applied, in an amount of about ½ to about 5 cc of protein isolate/xylitol composition to each one square centimeter of wound area, to a freshly debrided chronic wound after the slough has been removed.
Xylitol (one-, two-, three-, four-, and five-xypentane hydro from Spectrum Chemical) comprised the second active ingredient, and was present at a concentration of 5% by weight of the mixture. The base gel of the composition comprised methylcellulose (0.023 gm/cc), gelatin (0.013 gm/cc) and sterile water.

[1] = individual patient case reports

B1: lactoferrin: iron-binding glycoprotein, 75,000-80,000 Daltons; in Examples 2-11 applied as Bioferrin with xylitol in gel (protein, UniProt P24627 20-708, looked up)
Lactotransferrin: APRKNVRWCTISQPEWFKCRRWQWRMKKLGAPSITCVRRAFALECIRAIAEKKADAVTLDGGMVFEAGRDPYKLRPVAAEIYGTKESPQTHYYAVAVVKKGSNFQLDQLQGRKSCHTGLGRSAGWIIPMGILRPYLSWTESLEPLQGAVAKFFSASCVPCIDRQAYPNLCQLCKGEGENQCACSSREPYFGYSGAFKCLQDGAGDVAFVKETTVFENLPEKADRDQYELLCLNNSRAPVDAFKECHLAQVPSHAVVARSVDGKEDLIWKLLSKAQEKFGKNKSRSFQLFGSPPGQRDLLFKDSALGFLRIPSKVDSALYLGSRYLTTLKNLRETAEEVKARYTRVVWCAVGPEEQKKCQQWSQQSGQNVTCATASTTDDCIVLVLKGEADALNLDGGYIYTAGKCGLVPVLAENRKSSKHSSLDCVLRPTEGYLAVAVVKKANEGLTWNSLKDKKSCHTAVDRTAGWNIPMGLIVNQTGSCAFDEFFSQSCAPGADPKSRLCALCAGDDQGLDKCVPNSKEKYYGYTGAFRCLAEDVGDVAFVKNDTVWENTNGESTADWAKNLNREDFRLLCLDGTRKPVTEAQSCHLAVAPNHAVVSRSDRAAHVKQVLLHQQALFGKNGKNCPDKFCLFKSETKNLLFNDNTECLAKLGGRPTYEEYLGTEYVTAIANLKKCSTSPLLEACAFLTR
efficacy for treating oral ulcers (oral ulcers): not effective
effect on biofilm formation (Streptococcus mutans): stimulate biofilm formation
effect on biofilm formation (P. aeruginosa): block biofilm formation
inhibition of biofilm reconstitution / response of wounds, clinical experience (chronic wound biofilm; chronic wounds after debridement, comparative statements): inhibits reconstitution of an existing biofilm in a chronic wound
slough (biofilm) in the wound bed during therapy (chronic wound biofilm; [1]): no evidence of slough
wound healing outcome (chronic wound biofilm; [1]): the wound healed; also recorded: almost completely healed
wound healing outcome (chronic wound biofilm; individual patient case reports, listed as Lactoferrin): complete healing of their wound
time to complete healing / closure of wound (chronic wound biofilm; patients with venous leg wounds): 5 weeks
